Assay results published in US20150203577A1 (Chugai, published 2015).
Where a chain is given by its changes, count along the chain named.

B1: H237-mIgG1/MRAL-k0 (antibody)
heavy: QVQLQESGPGLVKPSETLSLTCAVSGHSISHDHAWSWVRQPPGEGLEWIGFISYSGITNYNPSLQGRVTISRDNSKNTLYLQMNSLRAEDTAVYYCARSLARTTAMDYWGEGTLVTVSSAKTTPPSVYPLAPGSAAQTNSMVTLGCLVKGYFPEPVTVTWNSGSLSSGVHTFPAVLQSDLYTLSSSVTVPSSTWPSETVTCNVAHPASSTKVDKKIVPRDCGCKPCICTVPEVSSVFIFPPKPKDVLTITLTPKVTCVVVDISKDDPEVQFSWFVDDVEVHTAQTQPREEQFNSTFRSVSELPIMHQDWLNGKEFKCRVNSAAFPAPIEKTISKTKGRPKAPQVYTIPPPKEQMAKDKVSLTCMITDFFPEDITVEWQWNGQPAENYKNTQPIMDTDGSYFVYSKLNVQKSNWEAGNTFTCSVLHEGLHNHHTEKSLSHSPGK
light: not shown
notes: copies: 2 + 2
B2: H237-MB476/MRAL-k0 (antibody, mouse IgG1, kappa)
heavy: B1 heavy with T229Q, V230P, P231N, S234E, S235E
light: not shown
notes: copies: 2 + 2
B3: H237-MB526/MRAL-k0 (antibody, mouse IgG1, kappa)
heavy: B1 heavy with T229Q, V230P, P231N, S234E, S235E, S294L
light: not shown
notes: copies: 2 + 2
B4: H237-MB527/MRAL-k0 (antibody, mouse IgG1, kappa)
heavy: B1 heavy with T229Q, V230P, P231N, S234E, S235E, S294L, N320D
light: not shown
notes: copies: 2 + 2
B5: H237-MB528/MRAL-k0 (antibody, mouse IgG1, kappa)
heavy: B1 heavy with T229Q, V230P, P231N, S234E, S235E, S294L, A322D
light: not shown
notes: copies: 2 + 2
B6: H237-MB529/MRAL-k0 (antibody, mouse IgG1, kappa)
heavy: B1 heavy with T229Q, V230P, P231N, S234E, S235E, S294L, K330R
light: not shown
notes: copies: 2 + 2
B7: H237-MB530/MRAL-k0 (antibody, mouse IgG1, kappa)
heavy: B1 heavy with T229Q, V230P, P231N, S234E, S235E, N320D, A322D
light: not shown
notes: copies: 2 + 2
B8: H237-MB531/MRAL-k0 (antibody, mouse IgG1, kappa)
heavy: B1 heavy with T229Q, V230P, P231N, S234E, S235E, N320D, K330R
light: not shown
notes: copies: 2 + 2
B9: H237-MB532/MRAL-k0 (antibody, mouse IgG1, kappa)
heavy: B1 heavy with T229Q, V230P, P231N, S234E, S235E, A322D, K330R
light: not shown
notes: copies: 2 + 2
B10: H237-MB533/MRAL-k0 (antibody, mouse IgG1, kappa)
heavy: B1 heavy with T229Q, V230P, P231N, S234E, S235E, S294L, N320D, A322D
light: not shown
notes: copies: 2 + 2
B11: H237-MB594/MRAL-k0 (antibody, mouse IgG1, kappa)
heavy: B1 heavy with T229E, V233E, S234E
light: not shown
notes: copies: 2 + 2
B12: H237-MB646/MRAL-k0 (antibody, mouse IgG1, kappa)
heavy: B1 heavy with T229E, V230P, P231A, S234E, S235Y
light: not shown
notes: copies: 2 + 2
B13: H237-MB657/MRAL-k0 (antibody, mouse IgG1, kappa)
heavy: B1 heavy with T229E, V230P, P231N, S234E, S235F
light: not shown
notes: copies: 2 + 2
B14: H237-MB685/MRAL-k0 (antibody, mouse IgG1, kappa)
heavy: B1 heavy with V230P, P231A, S234E, S235L
light: not shown
notes: copies: 2 + 2
B15: H237-MB686/MRAL-k0 (antibody, mouse IgG1, kappa)
heavy: B1 heavy with T229E, P231A, S234E, S235L
light: not shown
notes: copies: 2 + 2
B16: H237-MB687/MRAL-k0 (antibody)
heavy: B1 heavy with T229E, V230P, S234E, S235L
light: not shown
notes: copies: 2 + 2
B17: H237-MB688/MRAL-k0 (antibody, mouse IgG1, kappa)
heavy: B1 heavy with P231Y, S234E, S235N
light: not shown
notes: copies: 2 + 2
B18: H237-MB689/MRAL-k0 (antibody, mouse IgG1, kappa)
heavy: B1 heavy with T229E, S234E, S235N
light: not shown
notes: copies: 2 + 2
B19: H237-MB690/MRAL-k0 (antibody, mouse IgG1, kappa)
heavy: B1 heavy with V230P, P231A, S234E, S235Y
light: not shown
notes: copies: 2 + 2
B20: H237-MB691/MRAL-k0 (antibody, mouse IgG1, kappa)
heavy: B1 heavy with T229E, P231A, S234E, S235Y
light: not shown
notes: copies: 2 + 2
B21: H237-MB692/MRAL-k0 (antibody, mouse IgG1, kappa)
heavy: B1 heavy with T229E, V230P, S234E, S235Y
light: not shown
notes: copies: 2 + 2
B22: H237-MB693/MRAL-k0 (antibody, mouse IgG1, kappa)
heavy: B1 heavy with V230D, P231Y, S234E, S235Y
light: not shown
notes: copies: 2 + 2
B23: H237-MB694/MRAL-k0 (antibody)
heavy: B1 heavy with T229E, V230D, S234E, S235Y
light: not shown
notes: copies: 2 + 2
B24: H237-MB695/MRAL-k0 (antibody, mouse IgG1, kappa)
heavy: B1 heavy with V230P, P231N, S234E, S235F
light: not shown
notes: copies: 2 + 2
B25: H237-MB696/MRAL-k0 (antibody, mouse IgG1, kappa)
heavy: B1 heavy with T229E, P231N, S234E, S235F
light: not shown
notes: copies: 2 + 2
B26: H237-MB698/MRAL-k0 (antibody, mouse IgG1, kappa)
heavy: B1 heavy with T229E, V233E, S234E, S235L
light: not shown
notes: copies: 2 + 2
B27: H237-MB700/MRAL-k0 (antibody, mouse IgG1, kappa)
heavy: B1 heavy with T229E, V233E, S234E, S235Y
light: not shown
notes: copies: 2 + 2
B28: H237-MB702/MRAL-k0 (antibody, mouse IgG1, kappa)
heavy: B1 heavy with V230A, P231Y, S234E, S235N
light: not shown
notes: copies: 2 + 2
B29: H237-MB703/MRAL-k0 (antibody, mouse IgG1, kappa)
heavy: B1 heavy with T229E, V230A, S234E, S235N
light: not shown
notes: copies: 2 + 2

Target: T1, mouse FcγRIII extracellular domain with C-terminal His tag (mouse, UniProt P08508 31-215)
T1 construct: Made on the basis of NCBI NP-034318.2; also called mFcγRIII; mFcgRIII
T1 chain: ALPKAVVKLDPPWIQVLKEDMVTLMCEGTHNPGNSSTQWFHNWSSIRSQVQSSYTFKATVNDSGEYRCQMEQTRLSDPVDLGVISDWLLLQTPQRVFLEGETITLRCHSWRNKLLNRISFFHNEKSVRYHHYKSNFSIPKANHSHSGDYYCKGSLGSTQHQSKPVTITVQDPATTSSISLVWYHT
Assay: SPR Biacore T200

Binder	Kd [nM]
B1	282

Target: T1, mouse FcγRIII extracellular domain with …
Assay: SPR Biacore T200
Remark: another data set of the same source
Description: (§1) Each altered antibody was analyzed for its interaction with each Fcγ receptor prepared above using Biacore T100 (GE Healthcare Japan Corp.), Biacore T200 (GE Healthcare Japan Corp.), Biacore A100, or Biacore 4000. The running buffer used was HBS-EP+ (GE Healthcare Japan Corp.). The assay temperature was set to 25° C. The sensor chips used were chips prepared by immobilizing Protein L (ACTIGEN or BioVision) onto Series S Sensor Chip CM5 (GE Healthcare Japan Corp.) or Series S Sensor Chip CM4 (GE Healthcare Japan Corp.) by the amine coupling method.
(§2) In order to calculate the KD value of each altered antibody for FcγR, kinetic analysis was conducted according to the following method: first, the antibody of interest was captured onto any of these chips and allowed to interact with mFcγR diluted with a running buffer. For the obtained sensorgram, the assay results were globally fit into the 1:1 Langmuir binding model using Biacore Evaluation Software to calculate an association rate constant ka (L/mol/s) and a dissociation rate constant kd (1/s). From these values, the dissociation constant KD (mol/L) was calculated.

Binder	Kd [nM]
B1	282

The binders below were run against T2, mouse FcγRII extracellular domain, C-terminal His tag (mouse, UniProt P08101 30-210) (assay: SPR (Biacore T200), 1:1 fit).
T2 construct: Whole entry named; also called mFcγRII; mFcgRII
T2 sequence: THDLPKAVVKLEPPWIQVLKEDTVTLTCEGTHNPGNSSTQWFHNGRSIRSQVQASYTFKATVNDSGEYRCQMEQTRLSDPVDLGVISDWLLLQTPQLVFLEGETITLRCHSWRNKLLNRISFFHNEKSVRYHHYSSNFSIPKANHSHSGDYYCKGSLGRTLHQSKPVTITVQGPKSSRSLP
Description: as §1, §2

Binder	Kd [nM]
B2	0.804
B3	0.904
B4	0.768
B5	0.56
B6	0.745
B7	0.337
B8	0.918
B9	0.639
B10	0.534

Target: T3, mouse FcγRIII extracellular domain, C-terminal His tag (mouse, UniProt P08508 31-215)
T3 construct: Whole entry named; also called mFcγRIII; mFcgRIII
T3 chain: T1 chain
Assay: SPR (Biacore T200), 1:1 fit
Description: as §1, §2

Binder	Kd [nM]
B2	107
B3	33
B4	51
B5	19.3
B6	47.6
B7	35.1
B8	85
B9	45.4
B10	39

What follows are binders tested against T2, mouse FcγRII extracellular domain, … (assay: SPR (Biacore T200); KD of H237-mIgG1/MRAL-k0 / KD of variant).

Binder	relative mFcγRII-binding activity (mIgG1 = 1) [fold]
B11	1.85

Target: T3, mouse FcγRIII extracellular domain, …
Assay: as above

Binder	relative mFcγRIII-binding activity (mIgG1 = 1) [fold]
B11	0.1

Target: T2, mouse FcγRII extracellular domain, …
Assay: as above
Remark: another data set of the same source
Source text: (§3) The antibody H chain variable region used was the variable region H237 (SEQ ID NO: 1) of the H chain VH3-IgG1 of the anti-IL-6 receptor antibody Fv4-IgG1 described in WO2009/125825. The antibody L chain commonly used was the L chain MRAL-k0 (SEQ ID NO: 2) of the anti-IL-6 receptor antibody tocilizumab. The aforementioned 7 variants were used as templates to substitute the amino acids at the alteration sites by the amino acids before the alteration. These variants were expressed and purified by the method of Reference Example 1 and evaluated for their binding to mFcγRII and mFcγRIII by the method of Reference Example 2 using Biacore T200.
as §1

Binder	relative mFcγRII-binding activity (mIgG1 = 1) [fold]
B11	1.3
B12	3.8
B13	1.54
B14	0.606
B15	0.167
B16	0.943
B17	0.634
B18	0.413
B19	1.6
B20	0.582
B21	1.75
B22	1.22
B23	0.544
B24	0.435
B25	0.4
B26	0.194
B27	0.559
B28	0.96
B29	0.943

Target: T3, mouse FcγRIII extracellular domain, …
Assay: as above
Remark: another data set of the same source
Source text: as §3, §1

Binder	relative mFcγRIII-binding activity (mIgG1 = 1) [fold]
B11	0.057
B12	0.176
B13	0.087
B14	0.093
B15	0.052
B16	0.096
B17	0.081
B18	0.075
B19	0.188
B20	0.071
B21	0.115
B22	0.094
B23	0.031
B24	0.088
B25	0.094
B26	0.024
B27	0.044
B28	0.145
B29	0.104

Target: T3, mouse FcγRIII extracellular domain, …
Assay: as above
Remark: another data set of the same source
Description: as §1, §2

Binder	relative mFcγRIII-binding activity (mIgG1 = 1) [fold]
B2	2.6
B3	8.5
B4	5.5
B5	14.6
B6	5.9
B7	8
B8	3.3
B9	6.2
B10	7.2
